Assay results taken from patent US5690954A, “Enhanced uptake drug delivery system having microspheres containing an active drug and a bioavailability improving material” (priority 1987, dated 1997).

Key:
[1] = nasal, sodium deoxycholate; cited from earlier work
[2] = dogs, powder with cellulosic material and Carbopol 934; cited from earlier work
[3] = intranasal with Laureth 9; cited from earlier work
[4] = Insulin nasal in sheep, plasma glucose and plasma insulin
[5] = without enhancer; cited from earlier work
[6] = rats, nasal polyacrylic acid gel, versus normal formulation; cited from earlier work
[7] = Comparative studies: nasal insulin with various materials with and without starch microspheres; type: in vivo; details: sheep; for decrease in plasma glucose and increase in absorption versus starch microspheres alone: nasal powder
Description: A series of studies were carried out to determine the effect on the administration of insulin of various enhancers with and without microsphere particles. All of the studies were carried out in sheep and the insulin was administered intranasally either in solution or powder formulation. The preparation of the various insulin formulations and the method of administration and result taking were all as described earlier.

[8] = Bioavailability enhancement by microspheres plus bioavailability increasing material (general statement); details: microspheres with lysophosphatidylcholine
From the text: The material selected for these studies has been lysophosphatidylcholine (described above).

[9] = intranasal simple solution, 2 IU/kg
[10] = intranasal solution with 0.2% LPC
[11] = intranasal starch microspheres and LPC
[12] = intranasal starch microspheres and LPC, 2 IU/kg

In the case of “insulin: Zn-crystallized highly purified semisynthetic human insulin (sheep studies)”, the “effect of increasing amounts of bile salt on absorption” value [1] is listed as “striking effect”, the “absorption after nasal application” value [2] is listed as “increase the absorption” and the “appearance of peak level” value [3] is listed as “rapidly”. For the same substance, the dose response [3] was “clear dose response relationship”, the “shape of plasma glucose profile versus intravenous insulin” value ([4]; intranasal insulin-microsphere-enhancer system) was “very similar to the one obtained for the intravenous insulin” and the “amount of insulin absorbed” value [4, 9] was “very low”. For the same substance, the “effect on plasma glucose level” value [4, 9] was “does not have a significant effect”, the “amount of insulin appearing in the circulation” value [4, 10] was “increases the amount of insulin appearing in the circulation” and the plasma glucose level [4, 10] was “somewhat lower”. The “decline of insulin level after peak” value [4, 11] was “decreases rapidly as for intravenous insulin”, the “relative bioavailability versus subcutaneous injection” value [4, 11] was “about 25%” and the “time of peak insulin level” value [4, 11] was 15 to 20 min. For the same substance, the “increase in AUC of plasma insulin versus simple nasal solution” value [4, 12] was 693%, the “increase in peak insulin level versus simple nasal solution” value [4, 12] was 1040% and the “absorption efficiency across the nasal membrane” value [5] was “about 1.2 % of the administered dose”. For the same substance, the plasma glucose levels [6] was “significant decrease”, the “shape of absorption profile” value ([7]; nasal) was “sharp peak” and the “plasma glucose level versus insulin in GDC solution” value ([7]; nasal 2 IU/kg, GDC 0.08 mg/kg and starch microspheres 2.5 mg/kg) was “decreased considerably more”. For the same substance, the “absorption (plasma insulin levels)” value ([7]; nasal 2 IU/kg, GDC and starch microspheres) was “enhanced absorption”, the “decrease in plasma glucose and increase in absorption versus starch microspheres alone” value ([7]; starch microspheres with N-acetyl cysteine) was “considerably increased” and the “decrease in plasma glucose and increase in absorption versus starch microspheres alone” value ([7]; starch microspheres with aprotinin) was “considerably increased”. The “effect on plasma glucose levels versus LPC-M alone in solution” value ([7]; nasal, LPC-M and starch microspheres) was “considerably increased effect” and the “enhancement concept, outcome” value [8] was “successful”.
